B1: Chromodomain-helicase-DNA-binding protein 4, residues 623 to 675; numbered along this chain, Q14839 (parent)
chain: MIHRILNHSVDKKGHVHYLIKWRDLPYDQASWESEDVEIQDYDLFKQSYWNHR

± gives the uncertainty stated by the source.

The variants in the data set derive from B1. As to the kind of experiment: abundance fitness (aPCA) (normalised: wild type 0, dead -1); higher = more abundant; growth selection in yeast, the domain comes from the species named. Particulars: Homo sapiens.
Regarding D11Q, the abundance fitness is -0.928 ± 0.21.

D11V: the abundance fitness is -0.951 ± 0.14.

D11I: the abundance fitness was -0.812 ± 0.12.

For the variant D11P, the abundance fitness is -0.913 ± 0.13.

For the variant D11T, the abundance fitness was -0.518 ± 0.097.

On to D11W, for which the abundance fitness is -0.694 ± 0.22.

As for D11M, the abundance fitness was -1.09 ± 0.28.

Regarding D11R, the abundance fitness is -0.762 ± 0.12.

With D11G, the abundance fitness is -0.597 ± 0.15.

With D11E, the abundance fitness is -0.499 ± 0.22.

Consider D11Y, for which the abundance fitness was -0.792 ± 0.12.

Regarding D11A, the abundance fitness was -0.679 ± 0.12.

For D11L, the abundance fitness was -0.875 ± 0.1.

With D11S, the abundance fitness is -0.305 ± 0.084.

Take D11N: the abundance fitness is -0.201 ± 0.085.

With D11K, the abundance fitness is -1.03 ± 0.36.

On to D11C, for which the abundance fitness was -0.403 ± 0.12.

Take H15F: the abundance fitness was -0.344 ± 0.17.

H15N: the abundance fitness was 0.081 ± 0.12.

H15S: the abundance fitness is -0.023 ± 0.089.

For H15L, the abundance fitness was -0.171 ± 0.089.

Consider H15K, for which the abundance fitness worked out at 0.205 ± 0.13.

H15A: the abundance fitness was -0.126 ± 0.087.

For H15Y, the abundance fitness is -0.409 ± 0.11.

As for H15Q, the abundance fitness was -0.021 ± 0.11.

As for H15V, the abundance fitness was -0.122 ± 0.088.

Consider H15C, for which the abundance fitness is -0.171 ± 0.14.

Consider H15E, for which the abundance fitness is -0.123 ± 0.13.

In the case of H15D, the abundance fitness was -0.511 ± 0.14.

Take H15W: the abundance fitness was -0.631 ± 0.15.

Consider H15M, for which the abundance fitness is -0.134 ± 0.1.

With H15R, the abundance fitness was determined as 0.057 ± 0.079.

As for H15I, the abundance fitness came out at 0.029 ± 0.12.

As for V16W, the abundance fitness was -0.715 ± 0.33.

V16A: the abundance fitness is -0.516 ± 0.12.

For V16K, the abundance fitness was -0.088 ± 0.12.

Regarding V16C, the abundance fitness was -0.22 ± 0.17.

With V16S, the abundance fitness is -0.745 ± 0.13.

With V16F, the abundance fitness was -0.382 ± 0.16.

Consider V16Q, for which the abundance fitness is -0.549 ± 0.16.

In the case of V16G, the abundance fitness is -0.757 ± 0.15.

On to V16M, for which the abundance fitness is -0.053 ± 0.11.

On to V16T, for which the abundance fitness was -0.059 ± 0.1.

Take V16R: the abundance fitness was -0.309 ± 0.14.

With V16Y, the abundance fitness is -0.016 ± 0.17.

Take V16L: the abundance fitness was -0.11 ± 0.093.

Consider V16D, for which the abundance fitness was -0.611 ± 0.17.

Consider V16P, for which the abundance fitness is -0.59 ± 0.16.

Consider V16H, for which the abundance fitness is -0.288 ± 0.16.

With V16I, the abundance fitness was -0.059 ± 0.11.

In the case of V16E, the abundance fitness was -0.545 ± 0.2.

As to N7A, the abundance fitness is -0.068 ± 0.097.

On to N7T, for which the abundance fitness was -0.162 ± 0.077.

Turning to N7R, the abundance fitness is -0.263 ± 0.089.

On to N7C, for which the abundance fitness was -0.45 ± 0.11.

On to N7W, for which the abundance fitness was -0.586 ± 0.19.

On to N7M, for which the abundance fitness is -0.529 ± 0.12.

As to N7E, the abundance fitness is -0.317 ± 0.17.

As to N7Y, the abundance fitness is -0.449 ± 0.09.

On to N7G, for which the abundance fitness is -0.356 ± 0.12.

N7P: the abundance fitness is -0.884 ± 0.098.

Turning to N7V, the abundance fitness was -0.724 ± 0.11.

Take N7Q: the abundance fitness was -0.101 ± 0.13.

Consider N7H, for which the abundance fitness was -0.26 ± 0.085.

On to N7F, for which the abundance fitness was -0.568 ± 0.089.

Consider N7D, for which the abundance fitness is 0.013 ± 0.11.

With N7S, the abundance fitness was -0.112 ± 0.071.

Regarding N7K, the abundance fitness is -0.07 ± 0.14.

Turning to N7L, the abundance fitness is -0.438 ± 0.076.

As to S9M, the abundance fitness is -0.105 ± 0.12.

For the variant S9Y, the abundance fitness was -0.177 ± 0.11.

S9N: the abundance fitness is -0.484 ± 0.14.

Take S9A: the abundance fitness was -0.398 ± 0.16.

Consider S9G, for which the abundance fitness is -0.553 ± 0.098.

Regarding S9E, the abundance fitness is -0.112 ± 0.14.

Consider S9I, for which the abundance fitness is -0.021 ± 0.11.

As for S9Q, the abundance fitness is -0.095 ± 0.12.

For the variant S9C, the abundance fitness was -0.062 ± 0.11.

S9L: the abundance fitness is -0.158 ± 0.092.

For S9K, the abundance fitness worked out at 0.139 ± 0.095.

Consider S9W, for which the abundance fitness was -0.198 ± 0.1.

S9D: the abundance fitness was -0.341 ± 0.14.

Turning to S9T, the abundance fitness was -0.068 ± 0.096.

With S9P, the abundance fitness is -0.766 ± 0.15.

Consider S9V, for which the abundance fitness was -0.407 ± 0.11.

For S9H, the abundance fitness was -0.066 ± 0.11.

Regarding S9F, the abundance fitness is -0.127 ± 0.1.

Consider S9R, for which the abundance fitness was 0.156 ± 0.076.

With K13F, the abundance fitness is -0.079 ± 0.088.

For K13N, the abundance fitness was -0.123 ± 0.093.

On to K13V, for which the abundance fitness was -0.263 ± 0.088.

As to K13D, the abundance fitness is 0.098 ± 0.1.

Consider K13P, for which the abundance fitness was -0.828 ± 0.11.

In the case of K13R, the abundance fitness is -0.196 ± 0.084.

With K13S, the abundance fitness is -0.098 ± 0.073.

As to K13L, the abundance fitness was -0.36 ± 0.078.

Consider K13E, for which the abundance fitness is -0.066 ± 0.13.

As to K13T, the abundance fitness was -0.344 ± 0.088.

Regarding K13Y, the abundance fitness is -0.214 ± 0.092.

Regarding K13A, the abundance fitness was -0.25 ± 0.085.

In the case of K13C, the abundance fitness is -0.267 ± 0.093.

For K13I, the abundance fitness is -0.588 ± 0.1.

As to K13Q, the abundance fitness is -0.133 ± 0.11.

Turning to K13W, the abundance fitness is -0.492 ± 0.16.

Consider K13H, for which the abundance fitness was -0.062 ± 0.09.

Consider K13M, for which the abundance fitness was -0.162 ± 0.12.

As for K13G, the abundance fitness is -0.335 ± 0.089.

Take K21C: the abundance fitness is -0.424 ± 0.14.

As to K21Q, the abundance fitness is -0.106 ± 0.13.

Consider K21P, for which the abundance fitness was -0.855 ± 0.14.

Consider K21G, for which the abundance fitness is -0.656 ± 0.13.

Regarding K21A, the abundance fitness is -0.01 ± 0.098.

For K21I, the abundance fitness is -0.581 ± 0.16.

Turning to K21V, the abundance fitness was -0.463 ± 0.1.

As for K21L, the abundance fitness is -0.204 ± 0.089.

As to K21N, the abundance fitness was -0.561 ± 0.19.

In the case of K21F, the abundance fitness is -0.537 ± 0.15.

With K21H, the abundance fitness was -0.008 ± 0.12.

Regarding K21D, the abundance fitness was -0.818 ± 0.19.

In the case of K21T, the abundance fitness is -0.949 ± 0.17.

Take K21W: the abundance fitness was -0.201 ± 0.1.

Take K21S: the abundance fitness was -0.406 ± 0.095.

For the variant K21Y, the abundance fitness is -0.349 ± 0.14.

As to W22M, the abundance fitness was -0.447 ± 0.18.

For W22K, the abundance fitness was -0.891 ± 0.23.

For the variant W22E, the abundance fitness was -0.823 ± 0.2.

As to W22I, the abundance fitness is -0.797 ± 0.23.

Regarding W22F, the abundance fitness was -0.825 ± 0.16.

With W22H, the abundance fitness is -0.733 ± 0.18.

In the case of W22G, the abundance fitness was -0.88 ± 0.16.

Regarding W22S, the abundance fitness is -0.806 ± 0.097.

In the case of W22P, the abundance fitness is -0.959 ± 0.15.

W22V: the abundance fitness was -0.55 ± 0.11.

Turning to W22N, the abundance fitness is -1.13 ± 0.37.

Turning to W22L, the abundance fitness is -0.795 ± 0.091.

Regarding W22R, the abundance fitness was -0.855 ± 0.12.

Turning to W22T, the abundance fitness is -0.871 ± 0.15.

Turning to W22C, the abundance fitness was -0.793 ± 0.14.

In the case of W22Q, the abundance fitness is -0.796 ± 0.17.

W22A: the abundance fitness was -0.889 ± 0.14.

Y18H: the abundance fitness is -0.736 ± 0.2.

Turning to Y18G, the abundance fitness is -0.798 ± 0.14.

With Y18N, the abundance fitness is -0.754 ± 0.18.

Turning to Y18V, the abundance fitness is -0.753 ± 0.11.

With Y18L, the abundance fitness is -0.86 ± 0.11.

With Y18S, the abundance fitness is -0.681 ± 0.12.

Regarding Y18Q, the abundance fitness was -0.962 ± 0.2.

Consider Y18C, for which the abundance fitness is -0.59 ± 0.18.

As for Y18P, the abundance fitness is -0.833 ± 0.14.

Consider Y18F, for which the abundance fitness was -0.43 ± 0.15.

Regarding Y18M, the abundance fitness is -0.957 ± 0.19.

On to Y18K, for which the abundance fitness is -0.838 ± 0.17.

Turning to Y18A, the abundance fitness is -0.688 ± 0.11.

For the variant Y18W, the abundance fitness is -0.787 ± 0.17.

For the variant Y18R, the abundance fitness is -1.05 ± 0.14.

Consider Y18D, for which the abundance fitness is -0.963 ± 0.17.

R23A: the abundance fitness was -0.207 ± 0.11.

Take R23K: the abundance fitness was determined as 0.021 ± 0.14.

Consider R23E, for which the abundance fitness is -0.279 ± 0.16.

In the case of R23C, the abundance fitness is -0.294 ± 0.11.

Turning to R23I, the abundance fitness was -0.161 ± 0.12.

On to R23F, for which the abundance fitness was -0.349 ± 0.11.

As to R23D, the abundance fitness was -0.591 ± 0.18.

Regarding R23H, the abundance fitness is -0.164 ± 0.15.

With R23G, the abundance fitness is -0.481 ± 0.14.

In the case of H17K, the abundance fitness was 0.094 ± 0.11.

H17V: the abundance fitness was -0.485 ± 0.085.

The values are drawn from the Human Domainome abundance scans (Beltran et al. 2025).
